Test results reported in US20160280799.

Target: All other MMP-12 binders

B1: human MMP-12 catalytic domain (protein)
chain: GPVWRKHYITYRINNYTPDMNREDVDYAIRKAFQVWSNVTPLKFSKINTGMADILVVFARGAHGDFHAFDGKGGILAHAFGPGSGIGGDAHFDEDEFWTTHSGGTNLFLTAVHEIGHSLGLGHSSDPKAVMFPTYKYVDINTFRLSADDIRGIQSLYG
MMP-12 proteolytic activity, colorimetric assay (BIOMOL AK-402), VHH at 7 µM: did not inhibit MMP-12
